Values of other authors as cited in PMC2650391.

Molecular target: Histone H3K4me3 peptide (Homo sapiens) (UniProt P68431)

Sequence of ING2 PHD (Q9H160 209-264): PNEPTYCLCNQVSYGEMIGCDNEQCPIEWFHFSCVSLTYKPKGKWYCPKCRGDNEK

- Kd: 1.5 µM
Substance: ING2 PHD (from UniProt Q9H160)
